Consider ten molecules from PMC4942345 (Organic & biomolecular chemistry, 2016).

Primed or numbered codes have the meaning given here. Where no end group is shown, it is not given here. [ ]: non-standard residue; d: D form. The star is where a group is joined. 4‑CBS″ = 4-carboxybenzylsulfonamide on the N-terminus, O=C(O)c1ccc(CS(=O)(=O)*)cc1; 4‑CBS = 4-carboxybenzylsulfonamide, O=C(O)c1ccc(CS(=O)(=O)*)cc1

Experiment [1] addresses human carbonic anhydrase II (human, UniProt P00918 1-260). Nature of the experiment: SPR. Background: In SPR one partner is held on a chip, and binding of the other changes the refractive index at the surface.
Experiment [2] deals with human carbonic anhydrase I (human, UniProt P00915 1-261). In words: SPR.

By Kd is commonly meant the concentration at which binding is half-saturated.

Chain of human carbonic anhydrase I (P00915 whole entry): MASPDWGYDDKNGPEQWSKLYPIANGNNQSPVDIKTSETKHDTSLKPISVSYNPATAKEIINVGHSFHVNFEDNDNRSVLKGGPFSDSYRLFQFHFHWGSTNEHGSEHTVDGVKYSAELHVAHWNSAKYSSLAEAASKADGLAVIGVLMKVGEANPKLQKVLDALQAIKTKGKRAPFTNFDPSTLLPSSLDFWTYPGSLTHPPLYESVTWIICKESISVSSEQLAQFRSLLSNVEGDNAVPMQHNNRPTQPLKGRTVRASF

{4‑CBS″}-[dD][dV][dD][dD][dL]-NH2 [4-CBS-dvddl]: the Kd in experiment [1] amounted to 156 nM; in experiment [2], 137 nM.

As to {4‑CBS″}-[dD][dA][dD][dV][dL]-NH2 [4-CBS-dadvl], the results for the Kd in experiment [1] and in experiment [2] were 185 nM and 130 nM, respectively.

With {4‑CBS″}-[dD][dV][dD][dE][dY]-NH2 [4-CBS-dvdey], the Kd is 63 nM in experiment [1] and 55 nM in experiment [2].

For the molecule {4‑CBS″}-[dD][dV][dE][dV][dL]-NH2 [4-CBS-dvevl], the Kd in experiment [1] is 82 nM; in experiment [2], 151 nM.

Consider {4‑CBS}-[dD][dL][dD][dD][dW] [4-CBS-dlddw], for which the Kd in experiment [1] worked out at 22 nM; in experiment [2] it was 25 nM.

As for {4‑CBS}-[dD][dV][dD][dV][dL] [4-CBS-dvdvl], the Kd in experiment [1] turned out to be 82 nM; in experiment [2], 83 nM.

Regarding {4‑CBS″}-[dD][dV][dD][dD][dY]-NH2 [4-CBS-dvddy], the Kd in experiment [1] was 82 nM; in experiment [2], 102 nM.

Turning to {4‑CBS}-LKEYD [4-CBS-LKEYD], the equilibrium dissociation constant (Kd) in experiment [1] came out at 59 nM; in experiment [2], 81 nM.

Consider {4‑CBS″}-[dD][dL][dE][dE][dY]-NH2 [4-CBS-dleey], for which the Kd was 88 nM in experiment [1] and 116 nM in experiment [2].

In the case of {4‑CBS″}-[dD][dV][dE][dY][dE]-NH2 [4-CBS-dveye], the results for the Kd in experiment [1] and in experiment [2] were 97 nM and 121 nM, respectively.
